Source: paper PMC12233901, “Resolving the APN controversy in PEDV infection: Comparative kinetic characterization through single-virus tracking” (PLOS Pathogens, 2025)

B1: TGEV S1 protein with a C-terminal His tag (domain or fragment)
chain: IGNHWNLIETFLLNYSSRLPPNSDAVLGDYFPTVQPWFNCIRNNSNDLYVTLENLKALYWDYAIENITSNHKQRLNVVVNGYPYSITVTTTRNFNSAEGAIICICKGSPPTTTTESSLTCNWGSECRLNHKFPICPSNSEANCGNMLYGLQWFADAVVAYLHGASYRISFENQWSGTVTLGDMRATTLETAGTLVDLWWFNPVYDVSYYRVNNKNGTTVVSNCTDQCASYVANVFTTQPGGFIPSDFSFNNWFLLTNSSTLVSGKLVTKQPLLVNCLWPVPSFEEAASTFCFEGAGFDQCNGAVLNNTVDVIRFNLNFTTNVQSGKGATVFSLNTTGGVTLEISCYNDTVSDSSFSSYGEMPFGVTDGPRYCYVLYNGTALKYLGTLPPVVKEIAISKWGHFYINGYNFFSTFPIDCISFNLTTGDSDVFWTIAYTSYTEALVQVENTAITKVTYCNSYVNNIKCSQLTANLNNGFYPVSSSEVGLVNKSVVLLPSFYTHTIVNITIGLGMKRSGYGQPIASTLSNITLPMQDDNTDVYCIRSDQFSVYVHSTCKSALWDNVFKRNCTDVLDATAVIKTGTCPFSFAKLNNYLTFNKFCLSLSPVGANCKFDVAARTRTNDQVVRSLYVIYEEGDNIVGVPSDNSGLHDLSVLHLDSCTDYNIYGRTGVGIIRQTNRTLLSGLYYTSLSGDLLGFKNVSDGVIYSVTPCDVIAQAAVIDGTIVGAITSINSELLGLTHWTTTPNFYYY
B2: PEDV S1 protein with a C-terminal His tag (domain or fragment)
chain: CQSTTNFRRFFSKFNVQAPAVVVLGGYLPSMNSSSWYCGTGIETASGVHGIFLSYIDSGQGFEIGISQEPFDPSGYQLYLHKATNGNTNAIARLRICQFPDNKTLGPTVNDVTTGRNCLFNKAIPAYMRDGKDIVVGITWDNDRVTVFADKIYHFYLKNDWSRVATRCYNRRSCAMQYVYTPTYYMLNVTSAGEDGIYYEPCTANCTGYAANVFATDSNGHIPEGFSFNNWFLLSNDSTLLHGKVVSNQPLLVNCLLAIPKIYGLGQFFSFNHTMDGVCNGAAVDRAPEALRFNINDTSVILAEGSIVLHTALGTNLSFVCSNSSDPHLAIFAIPLGATEVPYYCFLKVDTYNSTVYKFLAVLPPTVREIVITKYGDVYVNGFGYLHLGLLDAVTINFTGHGTDDDVSGFWTIASTNFVDALIEVQGTSIQRILYCDDPVSQLKCSQVAFDLDDGFYPISSRNLLSHEQPISFVTLPSFNDHSFVNITVSAAFGGLSSANLVASDTTINGFSSFCVDTRQFTITLFYNVTNSYGYVSKSQDSNCPFTLQSVNDYLSFSKFCVSTSLLAGACTIDLFGYPAFGSGVKLTSLYFQFTKGELITGTPKPLEGITDVSFMTLDVCTKYTIYGFKGEGIITLTNSSILAGVYYTSDSGQLLAFKNVTSGAVYSVTPCSFSEQAAYVNDDIVGVISSLSNSTFNNTRELPGFFYH

Target: T1, porcine aminopeptidase N (pAPN) fused with a hFc tag (porcine, UniProt P15145)
T1 construct: also called porcine APN; source: HEK293T cell expression system, expressed and purified
T1 sequence: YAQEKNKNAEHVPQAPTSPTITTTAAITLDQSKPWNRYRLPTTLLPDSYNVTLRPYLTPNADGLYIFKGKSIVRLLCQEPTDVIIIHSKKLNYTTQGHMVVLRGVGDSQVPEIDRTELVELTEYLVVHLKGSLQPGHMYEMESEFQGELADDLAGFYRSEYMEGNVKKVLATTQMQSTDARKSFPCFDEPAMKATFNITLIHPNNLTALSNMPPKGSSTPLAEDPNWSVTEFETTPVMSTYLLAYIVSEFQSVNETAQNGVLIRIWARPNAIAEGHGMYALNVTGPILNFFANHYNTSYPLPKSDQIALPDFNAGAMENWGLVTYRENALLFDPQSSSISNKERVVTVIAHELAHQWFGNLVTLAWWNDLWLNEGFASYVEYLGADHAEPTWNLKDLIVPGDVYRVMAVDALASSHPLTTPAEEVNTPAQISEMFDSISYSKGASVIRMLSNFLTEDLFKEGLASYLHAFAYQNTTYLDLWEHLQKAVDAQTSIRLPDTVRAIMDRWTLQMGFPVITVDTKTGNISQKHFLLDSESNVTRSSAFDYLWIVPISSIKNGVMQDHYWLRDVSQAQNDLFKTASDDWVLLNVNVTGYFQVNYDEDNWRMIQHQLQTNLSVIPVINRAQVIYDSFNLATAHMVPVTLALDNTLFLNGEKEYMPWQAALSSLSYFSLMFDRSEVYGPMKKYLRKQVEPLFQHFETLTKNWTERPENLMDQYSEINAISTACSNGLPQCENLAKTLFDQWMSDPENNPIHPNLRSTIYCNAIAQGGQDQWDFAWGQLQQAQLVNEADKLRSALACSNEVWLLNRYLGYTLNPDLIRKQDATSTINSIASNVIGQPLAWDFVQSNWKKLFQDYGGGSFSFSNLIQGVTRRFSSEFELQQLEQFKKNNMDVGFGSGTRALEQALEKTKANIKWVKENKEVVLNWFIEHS
Assay: SPR; […]; Biacore 8K, room temperature
Conditions: both partners purified

Row | Binder | Kd [µM]
1 | B1 | 0.392
2 | B2 | 47.5
